Numbering of substitutions follows the chain as printed. Each block holds one binder with its values, some of them ahead of it.
What was measured:
human CCR7 [1] = molecular target: T1, human CCR7 (human, UniProt P32248 25-378); test: cell-based or functional assay
T1 sequence: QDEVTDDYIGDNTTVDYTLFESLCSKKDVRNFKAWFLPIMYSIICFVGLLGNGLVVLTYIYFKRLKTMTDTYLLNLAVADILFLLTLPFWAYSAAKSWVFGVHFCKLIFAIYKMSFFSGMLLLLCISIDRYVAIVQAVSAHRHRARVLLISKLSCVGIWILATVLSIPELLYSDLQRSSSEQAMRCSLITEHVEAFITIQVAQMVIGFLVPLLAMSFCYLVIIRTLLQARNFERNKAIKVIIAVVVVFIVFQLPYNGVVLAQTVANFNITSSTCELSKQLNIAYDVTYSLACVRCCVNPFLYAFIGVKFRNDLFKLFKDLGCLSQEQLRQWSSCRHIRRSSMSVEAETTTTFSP

human CCR7 [2] = molecular target: T1, human CCR7; test: cell-based or functional assay; remark: listed apart in the source

- IC50, inhibition of CCL19-dependent cell migration of Granta-519 cells (human CCR7 [1]): 25.5 nM
- IC50, inhibition of CCL19-induced intracellular Ca2+ signaling in hCCR7 gene-transfected cells (human CCR7 [1]): 21.4 nM
- IC50, inhibition of CCL21-induced intracellular Ca2+ signaling in hCCR7 gene-transfected cells (human CCR7 [1]): 17.8 nM
- half maximal inhibitory concentration (IC50), CCL21-induced intracellular Ca2+ signaling in MJ cells (human CCR7 [1]): 14.8 nM
- IC50 (nM), inhibition of intracellular Ca2+ signaling in human CCR7 gene-transfected cells stimulated with 5x10^-8 M CCL21 (human CCR7 [2]): 18.2 nM
B1: humanized anti-CCR7 antibody NB007-01 (antibody, human IgG1, kappa, V domains shown)
VH: EVQLVQSGPEVVKPGASVKLSCKASGYSFTGYYMHWVKQAPGQGLEWIGRVNPNQGGTSYNKKFKVRVTITVDRSISTAYMEFSRLRSDDTVVYYCARSESNNFYAMDYWGQGTSVTVSS
VL: DIVMTQSPLSLSVTPGQPASISCRSSQSLVHSNGNTYLCWYLQKPGQSPQLLIYRVSNKFSGVPDRFSGSGSGTDFTLKISRVEAEDVGVYYCFQGSHVPHTFGQGTKVEIKR

- IC50 (nM), inhibition of intracellular Ca2+ signaling in human CCR7 gene-transfected cells stimulated with 5x10^-8 M CCL21 (human CCR7 [2]): 16.4 nM
B2: humanized anti-CCR7 antibody NB007-02 (antibody, human IgG1, kappa, V domains shown)
VH: B1 VH with I70L
VL: B1 VL with K59R

- IC50 (nM), inhibition of intracellular Ca2+ signaling in human CCR7 gene-transfected cells stimulated with 5x10^-8 M CCL21 (human CCR7 [2]): 16.2 nM
B3: chimeric anti-CCR7 antibody VH0/VL0 (antibody, human IgG1, kappa, V domains shown)
VH: EVQLQQSGPDLVKPGASVKISCKASGYSFTGYYMHWVKQSHGKSLEWIGRVNPNNGGTSYNKKFKVKAILTVDRSSSTAYMEFRSLTLEDSAVYYCARSESNNFYAMDYWGQGKSVTVSS
VL: DILMTQTPLSLPVSLGDQVSISCRSSQSLVHSNGNTYLCWYLQKPGQSPKLLIYRVSNRFSGVPDRFSGSGSGTDFTLKISRVEAEDLGVYFCFQGSHVPHTFGSGTKLEIKR

- IC50 (nM), inhibition of intracellular Ca2+ signaling in human CCR7 gene-transfected cells stimulated with 5x10^-8 M CCL21 (human CCR7 [2]): 12.5 nM
B4: humanized anti-CCR7 antibody NB007-03 (antibody, human IgG1, kappa, V domains shown)
VH: B1 VH with Q55N, I70L
VL: B1 VL with S7T, P15L, K59R, Q105S
